# According to paper doi:10.1101/2024.08.08.606885:
# Tests used:
# [1] = molecular target: SARS-CoV-2 BA.2.86 S (Acro Biosystems, SPN-C524y) (SARS-CoV-2); test: cryo-EM structure
# [2] = molecular target: SARS-CoV-2 JN.1 RBD (SARS-CoV-2) (UniProt P0DTC2); test: BLI; […]; 10x kinetics buffer, […]; global fit, 1:1 binding model; […]
Substance,stoichiometry N [1],Kd [2],koff [2],kon [2]
"SARS-CoV-2 BA.2.86 S (Acro Biosystems, SPN-C524y) (domain or fragment)",3,,,
TRI2-2 homotrimeric miniprotein inhibitor (designed binder),,6.19 nM,0.00175 s⁻¹,282000 M⁻¹ s⁻¹
